From the supplement of paper PMC9112550, “Optimization of the antimicrobial peptide Bac7 by deep mutational scanning” (BMC Biology, 2022)

System: Escherichia coli TOP10
Assay: shrunken log2 fold change of peptide-encoding DNA abundance (4.5 h post-induction vs induction); higher = less antimicrobial activity (less host growth inhibition)
Conditions: time post-induction: 4.5 h; library: site-saturation at positions 5, 18, 19, 20
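Further: peptides expressed intracellularly from a pBAD plasmid library in pooled LB shake-flask culture, induced with 0.3% L-arabinose, DNA abundance read by NGS, three biological replicates, DESeq2 with apeglm shrinkage.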

| Sequence | shrunken log2 fold change |
| --- | --- |
| RRIRPRPPRLPRPRPRPDKGPRP | 0.118 |
| RRIRFRPPRLPRPRPRPQHAPRP | -0.202 |
| RRIRYRPPRLPRPRPRPDKMPRP | -0.0477 |
| RRIRPRPPRLPRPRPRPWQFPRP | 0.00677 |
| RRIRDRPPRLPRPRPRPTHPPRP | 0.263 |
| RRIRVRPPRLPRPRPRPWLEPRP | 0.147 |
| RRIRLRPPRLPRPRPRPQDEPRP | 0.119 |
| RRIRARPPRLPRPRPRPDAPPRP | 0.942 |
| RRIRQRPPRLPRPRPRPKSVPRP | -0.0026 |
| RRIRIRPPRLPRPRPRPKFDPRP | -0.18 |
| RRIRPRPPRLPRPRPRPCCIPRP | -0.269 |
| RRIRDRPPRLPRPRPRPGCCPRP | 0.617 |
| RRIRMRPPRLPRPRPRPAWCPRP | 3.93 |
| RRIRSRPPRLPRPRPRPQITPRP | -0.457 |
| RRIRVRPPRLPRPRPRPMDKPRP | -0.278 |
| RRIRKRPPRLPRPRPRPERYPRP | -0.0119 |
| RRIRRRPPRLPRPRPRPCYEPRP | 0.107 |
| RRIRMRPPRLPRPRPRPCCGPRP | 0.215 |
| RRIRWRPPRLPRPRPRPVYIPRP | -0.0308 |
| RRIRGRPPRLPRPRPRPIIPPRP | -0.212 |
| RRIRMRPPRLPRPRPRPFRYPRP | 0.0191 |
| RRIRHRPPRLPRPRPRPDMGPRP | 0.00739 |
| RRIRMRPPRLPRPRPRPQAQPRP | 0.299 |
| RRIRKRPPRLPRPRPRPIGQPRP | 0.0684 |
| RRIRLRPPRLPRPRPRPYGPPRP | -0.161 |

| Sequence | shrunken log2 fold change |
| --- | --- |
| RRIRIRPPRLPRPRPRPAFLPRP | -0.279 |
| RRIRRRPPRLPRPRPRPFILPRP | -0.293 |
| RRIRARPPRLPRPRPRPSTFPRP | 0.435 |
| RRIRQRPPRLPRPRPRPSGEPRP | 0.0168 |
| RRIRSRPPRLPRPRPRPMEMPRP | -0.0909 |
| RRIRTRPPRLPRPRPRPNQKPRP | -0.306 |
| RRIRIRPPRLPRPRPRPAEDPRP | -0.0521 |
| RRIRERPPRLPRPRPRPDKMPRP | -0.0703 |
| RRIRNRPPRLPRPRPRPFTIPRP | -0.28 |
| RRIRRRPPRLPRPRPRPQLPPRP | 0.283 |
| RRIRMRPPRLPRPRPRPQIAPRP | 0.208 |
| RRIRWRPPRLPRPRPRPWKYPRP | -0.679 |
| RRIRCRPPRLPRPRPRPCEIPRP | 0.0656 |
| RRIRTRPPRLPRPRPRPTWFPRP | -0.0683 |
| RRIRLRPPRLPRPRPRPDLPPRP | -0.0128 |
| RRIRCRPPRLPRPRPRPWDVPRP | 0.0309 |
| RRIRGRPPRLPRPRPRPVANPRP | 0.623 |
| RRIRPRPPRLPRPRPRPAFCPRP | 0.104 |
| RRIRKRPPRLPRPRPRPHQMPRP | 0.0681 |
| RRIRKRPPRLPRPRPRPLLSPRP | 0.523 |
| RRIRHRPPRLPRPRPRPIFPPRP | 0.033 |
| RRIRARPPRLPRPRPRPYFWPRP | -0.0609 |
| RRIRKRPPRLPRPRPRPFDCPRP | -0.128 |
| RRIRHRPPRLPRPRPRPDQCPRP | -0.000823 |
| RRIRGRPPRLPRPRPRPDMRPRP | 1.36 |

| Sequence | shrunken log2 fold change |
| --- | --- |
| RRIRFRPPRLPRPRPRPFGAPRP | 0.168 |
| RRIRVRPPRLPRPRPRPPKLPRP | 0.0622 |
| RRIRKRPPRLPRPRPRPQQSPRP | -0.0568 |
| RRIRLRPPRLPRPRPRPLSPPRP | 0.0444 |
| RRIRPRPPRLPRPRPRPIKHPRP | -0.31 |
| RRIRFRPPRLPRPRPRPKPHPRP | 1.81 |
| RRIRCRPPRLPRPRPRPRYQPRP | -0.319 |
| RRIRNRPPRLPRPRPRPIVRPRP | 0.0133 |
| RRIRDRPPRLPRPRPRPLTQPRP | 0.0757 |
| RRIRLRPPRLPRPRPRPFDWPRP | -0.133 |
| RRIRWRPPRLPRPRPRPAESPRP | 0.0626 |
| RRIRTRPPRLPRPRPRPNEEPRP | -0.0204 |
| RRIRTRPPRLPRPRPRPHQLPRP | -0.313 |
| RRIRHRPPRLPRPRPRPNCTPRP | -0.142 |
| RRIRTRPPRLPRPRPRPAMWPRP | 0.35 |
| RRIRYRPPRLPRPRPRPYTVPRP | -0.00544 |
| RRIRFRPPRLPRPRPRPGHSPRP | -0.0168 |
| RRIRWRPPRLPRPRPRPCNDPRP | -0.172 |
| RRIRMRPPRLPRPRPRPSPRPRP | 1.05 |
| RRIRFRPPRLPRPRPRPNQKPRP | -0.159 |
| RRIRDRPPRLPRPRPRPMNVPRP | 0.0651 |
| RRIRCRPPRLPRPRPRPPCGPRP | 0.142 |
| RRIRSRPPRLPRPRPRPTSLPRP | 0.074 |
| RRIRPRPPRLPRPRPRPYKFPRP | -0.178 |
| RRIRYRPPRLPRPRPRPLCTPRP | -0.759 |

| Sequence | shrunken log2 fold change |
| --- | --- |
| RRIRNRPPRLPRPRPRPRHGPRP | -0.0314 |
| RRIRQRPPRLPRPRPRPDHHPRP | -0.308 |
| RRIRIRPPRLPRPRPRPYKDPRP | -0.317 |
| RRIRLRPPRLPRPRPRPEHNPRP | -0.204 |
| RRIRERPPRLPRPRPRPQSIPRP | -2.26 |
| RRIRYRPPRLPRPRPRPICQPRP | -0.087 |
| RRIRWRPPRLPRPRPRPLSQPRP | 0.0157 |
| RRIRGRPPRLPRPRPRPEIRPRP | 0.122 |
| RRIRARPPRLPRPRPRPFQRPRP | -0.0439 |
| RRIRCRPPRLPRPRPRPGTKPRP | -0.404 |
| RRIRLRPPRLPRPRPRPFHNPRP | -0.336 |
| RRIRKRPPRLPRPRPRPETFPRP | -0.00962 |
| RRIRQRPPRLPRPRPRPSHNPRP | 0.547 |
| RRIRSRPPRLPRPRPRPTCDPRP | 0.109 |
| RRIRPRPPRLPRPRPRPYIRPRP | -0.297 |
| RRIRTRPPRLPRPRPRPDAGPRP | 0.11 |
| RRIRLRPPRLPRPRPRPHSCPRP | -0.884 |
| RRIRARPPRLPRPRPRPNAWPRP | 0.44 |
| RRIRCRPPRLPRPRPRPRTSPRP | 0.00938 |
| RRIRERPPRLPRPRPRPTGAPRP | 0.316 |
| RRIRSRPPRLPRPRPRPIISPRP | -0.472 |
| RRIRIRPPRLPRPRPRPDTLPRP | -0.658 |
| RRIRWRPPRLPRPRPRPTWWPRP | 0.79 |
| RRIRGRPPRLPRPRPRPYESPRP | 0.133 |
| RRIRVRPPRLPRPRPRPQVEPRP | -0.272 |

| Sequence | shrunken log2 fold change |
| --- | --- |
| RRIRERPPRLPRPRPRPLFQPRP | -0.271 |
| RRIRVRPPRLPRPRPRPCPKPRP | -0.0457 |
| RRIRWRPPRLPRPRPRPEADPRP | 1.5 |
| RRIRHRPPRLPRPRPRPKNGPRP | -0.0347 |
| RRIRIRPPRLPRPRPRPAWQPRP | 0.342 |
| RRIRVRPPRLPRPRPRPMRVPRP | 0.0609 |
| RRIRYRPPRLPRPRPRPFCKPRP | -1.59 |
| RRIRVRPPRLPRPRPRPGRYPRP | 0.303 |
| RRIRARPPRLPRPRPRPFQSPRP | 0.105 |
| RRIRSRPPRLPRPRPRPDKWPRP | 0.858 |
| RRIRGRPPRLPRPRPRPMTIPRP | 0.0989 |
| RRIRCRPPRLPRPRPRPRCHPRP | 0.0572 |
| RRIRHRPPRLPRPRPRPAWHPRP | -0.132 |
| RRIRERPPRLPRPRPRPCFFPRP | -0.331 |
| RRIRGRPPRLPRPRPRPMLTPRP | 1.04 |
| RRIRVRPPRLPRPRPRPFHCPRP | -0.13 |
| RRIRLRPPRLPRPRPRPSAEPRP | 0.342 |
| RRIRERPPRLPRPRPRPNTHPRP | -0.704 |
| RRIRVRPPRLPRPRPRPILSPRP | -0.134 |
| RRIRCRPPRLPRPRPRPVWIPRP | -0.441 |
| RRIRFRPPRLPRPRPRPAVRPRP | -0.0627 |
| RRIRFRPPRLPRPRPRPPQYPRP | 0.0298 |
| RRIRNRPPRLPRPRPRPIKDPRP | -0.4 |
| RRIRDRPPRLPRPRPRPNARPRP | 0.299 |
| RRIRYRPPRLPRPRPRPLMNPRP | -0.217 |
